± gives the uncertainty stated by the source.

This data set is described as follows: protein stability index of a GFP-peptide fusion (yeast GPS) (PSI 1-4); higher = more stable; sorted into four equal gates, so the index is relative within each strain. The method, boiled down: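 Plasmids in a pooled yeast library fused tiled 17-residue yeast protein peptides downstream of GFP and also expressed Cherry. Mid-log cultures grown without leucine were sorted into four equal gates by GFP/Cherry fluorescence ratio. Each gate's plasmids were PCR-amplified and Illumina-sequenced, and reads were matched to strains by barcodes. The protein stability index is derived by multiplying each gate's read frequency by its gate number and summing the results.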

Take GNNTELTKTTVNISAVD [YCG1]: the protein stability index runs as follows: (doa10∆) 2.98 ± 0.07; (pdr5∆) 3.24 ± 0.071; (san1∆) 3.02 ± 0.054; (ubr1∆) 3.12 ± 0.054.
In the case of IGISIVGRFSTISSADF [ECM29], the protein stability index was determined as 2.81 ± 0.24 (doa10∆), 2.54 ± 0.092 (pdr5∆), 3.12 ± 0.3 (san1∆) and 2.26 ± 0.19 (ubr1∆).
The like results for KIINTHSDMASKMYNTD [PRP8] were, in that order, 2.72 ± 0.049, 2.76 ± 0.052, 2.77 ± 0.05 and 2.28 ± 0.029.
AELIGLQPIFKGEEAKL [SSN3]: the protein stability index was determined as 2.54 ± 0.18 (doa10∆), 1.57 ± 0.16 (pdr5∆) and 1.33 ± 0.2 (ubr1∆).
Regarding QAVETVGQAGRPKKITG [RPN1], the protein stability index by setting is: (doa10∆) 1.99 ± 0.06; (pdr5∆) 2.74 ± 0.095; (san1∆) 2.31 ± 0.12; (ubr1∆) 2.45 ± 0.056.
The like results for TTDKNTTDDKSMDTKKK [BRN1] were, in that order, 3.51 ± 0.1, 3.51 ± 0.084, 3.61 ± 0.039 and 3.33 ± 0.053.
The like results for LSGVSNSMDMVDGMAKV [RGR1] were, in that order, 3.48 ± 0.11, 3.29 ± 0.11, 3.44 ± 0.13 and 3.34 ± 0.064.
For NLFGATANANKPAFSFG [YJL041W/NSP1] the same measures were 3.05 ± 0.096, 3.18 ± 0.081, 3.14 ± 0.074 and 3.12 ± 0.057.
As for YSPTSPSYSPTSPSYSP [RPO21], the protein stability index worked out at 2.756 ± 0.027 (doa10∆), 2.976 ± 0.026 (pdr5∆), 2.87 ± 0.024 (san1∆) and 2.868 ± 0.02 (ubr1∆).
In the case of TIHRSFTICLNDRNPRL [CSN12], the protein stability index came out at 2.82 ± 0.065 (doa10∆), 2.76 ± 0.063 (pdr5∆), 2.72 ± 0.069 (san1∆) and 2.65 ± 0.043 (ubr1∆).
For VAAKWNTSLISLFTYFR [PRP8] the same measures were 1.7 ± 0.064, 1.97 ± 0.095, 1.74 ± 0.18 and 2 ± 0.039.
For the sequence RVQLSGKIQENIPFWKH [SRP72], the protein stability index runs as follows: (doa10∆) 2.56 ± 0.071; (pdr5∆) 2.44 ± 0.067; (san1∆) 2.13 ± 0.07; (ubr1∆) 2.4 ± 0.041.
For FTSAPIEVTIGIDQYSF [AAR2] the same measures were 1.52 ± 0.09, 1.93 ± 0.086, 1.53 ± 0.12 and 1.64 ± 0.082.
As for IYLSRFLIKASVREINL [SSN8], the protein stability index is 1.83 ± 0.18 (doa10∆), 1.86 ± 0.13 (pdr5∆), 2.04 ± 0.13 (san1∆) and 1.25 ± 0.16 (ubr1∆).
VRELGILCIFEGEKCHP [SEC65] displayed a protein stability index (doa10∆) of 2.01 ± 0.052, a protein stability index (pdr5∆) of 2.43 ± 0.064, a protein stability index (san1∆) of 2.67 ± 0.051 and a protein stability index (ubr1∆) of 2.45 ± 0.042.
Regarding KDSYVRIANIEQNHLDN [YDL088C/ASM4], the protein stability index is, setting by setting: (doa10∆) 3.12 ± 0.14; (pdr5∆) 3.43 ± 0.28; (san1∆) 3.05 ± 0.13; (ubr1∆) 3.18 ± 0.13.
For EFTKINTPLVGAAFKVI [YJL039C/NUP192] the same measures were 1.63 ± 0.039, 1.91 ± 0.044, 1.6 ± 0.084 and 1.69 ± 0.037.
For VAQLKPFFKYIDDANVT [RPC37] the same measures were 2.81 ± 0.078, 2.9 ± 0.07, 2.9 ± 0.062 and 2.8 ± 0.07.
For DQFHRDTISAITHQLNN [RPC25], the protein stability index is 1.54 ± 0.049 (doa10∆), 2.12 ± 0.057 (pdr5∆), 1.84 ± 0.076 (san1∆) and 1.67 ± 0.034 (ubr1∆).
On to EVTIEDALKVVLRTALV [RPS12], for which the protein stability index reads like this: (doa10∆) 3.35 ± 0.11; (pdr5∆) 3.31 ± 0.091; (san1∆) 3.35 ± 0.099; (ubr1∆) 3.11 ± 0.067.
On to KSLVQYIELLPNADDIR [DIS3], for which the protein stability index reads like this: (doa10∆) 2.7 ± 0.15; (pdr5∆) 2.75 ± 0.077; (san1∆) 2.47 ± 0.069; (ubr1∆) 2.62 ± 0.064.
For TSNDASNKKETKKKRKP [ITC1] the same measures were 3.08 ± 0.089, 3.25 ± 0.075, 3.21 ± 0.088 and 3.29 ± 0.074.
For RREELQQRIREIGLLPE [SMC3] the same measures were 3.34 ± 0.12, 3.06 ± 0.2, 3.21 ± 0.075 and 3.45 ± 0.066.
On to DQKTGRAKSSSHLFNEY [RPN4], for which the protein stability index is, setting by setting: (doa10∆) 2.85 ± 0.25; (pdr5∆) 3.22 ± 0.24; (san1∆) 3.39 ± 0.12; (ubr1∆) 3.46 ± 0.15.
With DGIFSSKTDNIEDPNLS [YMR153W/NUP53], the protein stability index runs as follows: (doa10∆) 2.59 ± 0.086; (pdr5∆) 2.2 ± 0.092; (san1∆) 2.69 ± 0.096; (ubr1∆) 2.55 ± 0.095.
Consider EMKNIRGPYLVIVPLST [SNF2], for which the protein stability index is, setting by setting: (doa10∆) 1.44 ± 0.054; (pdr5∆) 1.51 ± 0.053; (san1∆) 1.44 ± 0.087; (ubr1∆) 1.38 ± 0.043.
For the sequence RFPTKFVTQFRHLRRTG [RET1], the protein stability index reads like this: (doa10∆) 1.41 ± 0.078; (pdr5∆) 1.73 ± 0.14; (ubr1∆) 2.17 ± 0.068.
Regarding KMYSDDTLKDISTSFCF [BRN1], the protein stability index by setting is: (doa10∆) 3.36 ± 0.086; (pdr5∆) 3.33 ± 0.067; (san1∆) 3.42 ± 0.039; (ubr1∆) 3.22 ± 0.067.
The sequence LSINKNFINQEDEGEER [RPC17] displayed a protein stability index (pdr5∆) of 3.29 ± 0.28.
LVAIFGGQGNTDDYFEE [FAS1]: the protein stability index is, setting by setting: (doa10∆) 3.15 ± 0.12; (pdr5∆) 3.48 ± 0.083; (san1∆) 3.26 ± 0.065; (ubr1∆) 3.23 ± 0.064.
Take VKNKYNVGKQLSNEIIY [PRP28]: the protein stability index is, setting by setting: (doa10∆) 2.35 ± 0.062; (pdr5∆) 2.6 ± 0.069; (san1∆) 2.36 ± 0.071; (ubr1∆) 2.57 ± 0.052.
The like results for DSRTTTGAYIANRVTDK [PRE3] were, in that order, 2.99 ± 0.13, 3.29 ± 0.11, 2.89 ± 0.11 and 3.08 ± 0.082.
The like results for KPMAFSNTTTHVPEKKS [MTR3] were, in that order, 1.46 ± 0.053, 2.04 ± 0.052, 2.32 ± 0.082 and 1.62 ± 0.034.
Regarding DRRKARKAYFTAPSSER [RPL26B], the protein stability index was 2.77 ± 0.17 (doa10∆), 2.72 ± 0.16 (pdr5∆), 3.12 ± 0.082 (san1∆) and 3.1 ± 0.14 (ubr1∆).
PTTTTGGLFGNSAQNNS [YGR119C/NUP57] returned a protein stability index (doa10∆) of 3.11 ± 0.071, a protein stability index (pdr5∆) of 3.18 ± 0.097, a protein stability index (san1∆) of 3 ± 0.062 and a protein stability index (ubr1∆) of 3.24 ± 0.054.
As for HMATALQIAQLTLKHRQ [RPN10], the protein stability index by setting is: (doa10∆) 1.58 ± 0.13; (pdr5∆) 1.8 ± 0.084; (san1∆) 1.59 ± 0.11; (ubr1∆) 1.62 ± 0.068.
Turning to IDKLEDLSRIMDWLDNW [ITC1], the protein stability index (doa10∆) amounted to 2.58 ± 0.29 and the protein stability index (pdr5∆) came out at 2.67 ± 0.23.
For the sequence AQKNTQSYGGRPYGVGL [PRE5], the protein stability index turned out to be 3.38 ± 0.084 (doa10∆), 3.43 ± 0.075 (pdr5∆), 3.23 ± 0.076 (san1∆) and 3.26 ± 0.058 (ubr1∆).

For the origin of these results see the supplement of paper PMC9732359.
